The results in this text go back to patent US10253076B2, “Peptides and combination of peptides for use in immunotherapy against ovarian cancer and other cancers” (immatics biotechnologies GmbH, priority 2015, dated 2019).

The experiment deals with HLA-A*02:01 (Homo sapiens, UniProt P04439, D140Y/D185E/D98H/E176V/E277Q/G131W/G231S/I119V/I121R/I166T/I218V/L300P/L318F/N151K/N90K/P208A/P217A/Q86G/Q94H/R138H/R169H/T345S). The experiment is described as follows: MHC binding assay (UV-ligand exchange, beta2m ELISA, peptide exchange yield). The conditions noted are these: binding of HLA-class I restricted peptides to HLA-A*02:01, ranged by peptide exchange yield (UV-ligand exchange, β2m ELISA). An outline of the steps: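 Peptide–HLA-A*02:01 complexes made by UV-mediated exchange of a photocleavable peptide with the test peptide. Exchange products diluted 100-fold on streptavidin-coated plates, 1 h at 37°C, then HRP anti-β2m 1 h at 37°C; TMB read at 450 nm to give exchange yield.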
Background: In an ELISA, binding on a coated surface is turned into a signal by an enzyme label.

As for “221 (ALYEEGLLL; listed as Homo sapiens) [compound 221]”, the Peptide exchange result is reported as “″++″ (≥20% = ++)”.
In the case of “222 (NLIENVQRL; listed as Homo sapiens) [compound 222]” it was “″++″ (≥20% = ++)”; in that of “223 (ALLENIALYL; listed as Homo sapiens) [compound 223]”, “″+++″ (≥50% = +++)”.
“224 (TLIDAQWVL; listed as Homo sapiens) [compound 224]”: the Peptide exchange result was “″+++″ (≥50% = +++)”.
The entry for “225 (SLLKVLPAL; listed as Homo sapiens) [compound 225]” is “″+++″ (≥50% = +++)”.
On to “226 (MLYVVPIYL; listed as Homo sapiens) [compound 226]”, for which the Peptide exchange entry is recorded as “″++″ (≥20% = ++)”.
Take “227 (ALMNTLLYL; listed as Homo sapiens) [compound 227]”: the Peptide exchange result was “″++″ (≥20% = ++)”.
Regarding “228 (AMQEYIAVV; listed as Homo sapiens) [compound 228]”, the Peptide exchange entry is reported as “″++″ (≥20% = ++)”.
In the case of “229 (RLPGPLGTV; listed as Homo sapiens) [compound 229]” it was “″++″ (≥20% = ++)”.
The entry for “230 (ILVDWLVEV; listed as Homo sapiens) [compound 230]” is “″+″ (≥10% = +)”; for “231 (FLSPQQPPLLL; listed as Homo sapiens) [compound 231]” it is “″++″ (≥20% = ++)”; for “232 (ALLEAQDVELYL; listed as Homo sapiens) [compound 232]” it is “″++″ (≥20% = ++)”.
In the case of “233 (VLSETLYEL; listed as Homo sapiens) [compound 233]” it was “″++″ (≥20% = ++)”; in that of “234 (ALMEDTGRQML; listed as Homo sapiens) [compound 234]”, “″++″ (≥20% = ++)”.
On to “235 (YLNDLHEVLL; listed as Homo sapiens) [compound 235]”, for which the Peptide exchange entry is given as “″++++″ (≥75% = ++++)”.
In the case of “236 (GLLEAKVSL; listed as Homo sapiens) [compound 236]” it was “″+++″ (≥50% = +++)”; in that of “237 (ALLEASGTLLL; listed as Homo sapiens) [compound 237]”, “″++++″ (≥75% = ++++)”.
As to “238 (YLISFQTHI; listed as Homo sapiens) [compound 238]”, the Peptide exchange entry is reported as “″+++″ (≥50% = +++)”.
The entry for “239 (AAFAGKLLSV; listed as Homo sapiens) [compound 239]” is “″+++″ (≥50% = +++)”; for “240 (ILLEQAFYL; listed as Homo sapiens) [compound 240]” it is “″+++″ (≥50% = +++)”.
In the case of “241 (SLVEVNPAYSV; listed as Homo sapiens) [compound 241]” it was “″+++″ (≥50% = +++)”; in that of “242 (AIAYILQGV; listed as Homo sapiens) [compound 242]”, “″++″ (≥20% = ++)”.
With “243 (LLLNELPSV; listed as Homo sapiens) [compound 243]”, the Peptide exchange entry is “″+++″ (≥50% = +++)”.
The entry for “244 (SLFGGTEITI; listed as Homo sapiens) [compound 244]” is “″+++″ (≥50% = +++)”; for “245 (SMIDDLLGV; listed as Homo sapiens) [compound 245]” it is “″+++″ (≥50% = +++)”; for “246 (LLWEVVSQL; listed as Homo sapiens) [compound 246]” it is “″+++″ (≥50% = +++)”.
In the case of “248 (FLFPNQYVDV; listed as Homo sapiens) [compound 248]” it was “″+++″ (≥50% = +++)”; in that of “249 (LLDGFLVNV; listed as Homo sapiens) [compound 249]”, “″+++″ (≥50% = +++)”.
The entry for “250 (ALSEEGLLVYL; listed as Homo sapiens) [compound 250]” is “″+++″ (≥50% = +++)”; for “251 (ALYTGFSILV; listed as Homo sapiens) [compound 251]” it is “″++″ (≥20% = ++)”; for “252 (LLIGTDVSL; listed as Homo sapiens) [compound 252]” it is “″+++″ (≥50% = +++)”.
“253 (GLDAATATV; listed as Homo sapiens) [compound 253]”: the Peptide exchange entry is given as “″++″ (≥20% = ++)”.
As for “254 (TLLAFIMEL; listed as Homo sapiens) [compound 254]”, the Peptide exchange result is recorded as “″+++″ (≥50% = +++)”.
Take “255 (VLASYNLTV; listed as Homo sapiens) [compound 255]”: the Peptide exchange result was “″+++″ (≥50% = +++)”.
In the case of “256 (FLPPEHTIVYI; listed as Homo sapiens) [compound 256]” it was “″+++″ (≥50% = +++)”.
With “257 (SIFSAFLSV; listed as Homo sapiens) [compound 257]”, the Peptide exchange entry is on record as “″+++″ (≥50% = +++)”.
The entry for “258 (ELAERVPAI; listed as Homo sapiens) [compound 258]” is “″++″ (≥20% = ++)”.
With “261 (YVLEFLEEI; listed as Homo sapiens) [compound 261]”, the Peptide exchange entry was “″++″ (≥20% = ++)”.
The entry for “262 (LLWGDLIWL; listed as Homo sapiens) [compound 262]” is “″+++″ (≥50% = +++)”.
Turning to “263 (LLVSNLDFGV; listed as Homo sapiens) [compound 263]”, the Peptide exchange entry is “″+++″ (≥50% = +++)”.
For the substance “264 (SLQEQLHSV; listed as Homo sapiens) [compound 264]”, the Peptide exchange result is “″+++″ (≥50% = +++)”.
The entry for “265 (LLFGGTKTV; listed as Homo sapiens) [compound 265]” is “″++″ (≥20% = ++)”; for “266 (KITDTLIHL; listed as Homo sapiens) [compound 266]” it is “″+++″ (≥50% = +++)”.
In the case of “267 (ALQDFLLSV; listed as Homo sapiens) [compound 267]” it was “″+++″ (≥50% = +++)”; in that of “269 (RVLEVGALQAV; listed as Homo sapiens) [compound 269]”, “″++″ (≥20% = ++)”; in that of “270 (LLLDEEGTFSL; listed as Homo sapiens) [compound 270]”, “″++″ (≥20% = ++)”.
As for “271 (LVYPLELYPA; listed as Homo sapiens) [compound 271]”, the Peptide exchange entry is listed as “″+++″ (≥50% = +++)”.
“272 (ALGNTVPAV; listed as Homo sapiens) [compound 272]”: the Peptide exchange result was “″+++″ (≥50% = +++)”.
The entry for “273 (NLFQSVREV; listed as Homo sapiens) [compound 273]” is “″++″ (≥20% = ++)”; for “274 (SLLFSLFEA; listed as Homo sapiens) [compound 274]” it is “″++″ (≥20% = ++)”.
Regarding “275 (YLVYILNEL; listed as Homo sapiens) [compound 275]”, the Peptide exchange entry is reported as “″++″ (≥20% = ++)”.
With “276 (ALFTFSPLTV; listed as Homo sapiens) [compound 276]”, the Peptide exchange entry is recorded as “″+++″ (≥50% = +++)”.
For the substance “277 (LLPPLESLATV; listed as Homo sapiens) [compound 277]”, the Peptide exchange result is on record as “″++″ (≥20% = ++)”.
The entry for “278 (QLLDVVLTI; listed as Homo sapiens) [compound 278]” is “″++″ (≥20% = ++)”; for “279 (ALWGGTQPLL; listed as Homo sapiens) [compound 279]” it is “″++″ (≥20% = ++)”; for “280 (VLPDPEVLEAV; listed as Homo sapiens) [compound 280]” it is “″+++″ (≥50% = +++)”.
The entry for “281 (ILRESTEEL; listed as Homo sapiens) [compound 281]” is “″+++″ (≥50% = +++)”; for “282 (LLADVVPTT; listed as Homo sapiens) [compound 282]” it is “″+++″ (≥50% = +++)”.
As to “284 (ILLSQTTGV; listed as Homo sapiens) [compound 284]”, the Peptide exchange entry is listed as “″+++″ (≥50% = +++)”.
The entry for “285 (QLLHVGVTV; listed as Homo sapiens) [compound 285]” is “″+++″ (≥50% = +++)”; for “286 (YLFPGIPEL; listed as Homo sapiens) [compound 286]” it is “″+++″ (≥50% = +++)”.
In the case of “287 (FLNEFFLNV; listed as Homo sapiens) [compound 287]” it was “″+++″ (≥50% = +++)”; in that of “288 (NLINEINGV; listed as Homo sapiens) [compound 288]”, “″+++″ (≥50% = +++)”.
The entry for “289 (VLLEIEDLQV; listed as Homo sapiens) [compound 289]” is “″++++″ (≥75% = ++++)”; for “295 (VLDRESPNV; listed as Homo sapiens) [compound 295]” it is “″+++″ (≥50% = +++)”.
With “296 (FMEGAIIYV; listed as Homo sapiens) [compound 296]”, the Peptide exchange entry is “″+++″ (≥50% = +++)”.
The entry for “297 (VLADIELAQA; listed as Homo sapiens) [compound 297]” is “″+++″ (≥50% = +++)”.
The entry for “298 (VMITKLVEV; listed as Homo sapiens) [compound 298]” is “″+++″ (≥50% = +++)”.
The entry for “299 (YLLETSGNL; listed as Homo sapiens) [compound 299]” is “″+++″ (≥50% = +++)”; for “300 (ALLGQTFSL; listed as Homo sapiens) [compound 300]” it is “″+++″ (≥50% = +++)”.
